Source: paper PMC4660199
Substitutions are numbered along the chain they refer to. In names and notes the source's numbering stands. Values belong to the binder of their own block, whether it stands above or below them. Where no end group is shown, it is not given here.

Target: full-length cpSRP43 (UniProt O22265)
Test: ITC; VP-ITC, 20 °C, 20 mM Hepes (pH 7.5), 150 mM NaCl, 5 mM MgCl2, 0.25 mM TCEP; 0.01–0.1 mM in the cell, 0.1–1.0 mM in the syringe; duplicate or triplicate

- Kd: 15 µM
Binder: GALASSTTSKPLPEVGQRRSKRSKRKRT (also: 15N,13C labelled where it is the observed NMR partner) [A3CT IV peptide]

- Kd: 44 µM
B1: A3CT K457A/R458A (domain or fragment)
chain: DENASKIISAGRAKRSIAQPDDAGERFRQLKEQEKRSKKNKAVAKDTVELVEESQSESEEGSDDEEEEAREGALASSTTSKPLPEVGQRRSKRSAAKRTV

- Kd: 20 µM
B2: A3CT K459A/R460A (domain or fragment)
chain: B1 chain with A95K, A96R, K97A, R98A
